What all share (experiment): cell-based or functional assay
Test [1] addresses human claudin 18.2 (CLDN18.2) (human).
Test [2] has the same target. The source holds these as a separate data set.
The target is the same in test [3]. This is another data set of the same source.

B1: 175D10 (IMAB362; claudiximab) (antibody, V domains shown)
VH: QVQLQQPGAELVRPGASVKLSCKASGYTFTSYWINWVKQRPGQGLEWIGNIYPSDSYTNYNQKFKDKATLTVDKSSSTAYMQLSSPTSEDSAVYYCTRSWRGNSFDYWGQGTTLTVSS
VL: DIVMTQSPSSLTVTAGEKVTMSCKSSQSLLNSGNQKNYLTWYQQKPGQPPKLLIYWASTRESGVPDRFTGSGSGTDFTLTISSVQAEDLAVYYCQNDYSYPFTFGSGTKLEIK
In the case of B1, in test [1], the “Fluorescence, pHAb internalization on MKN45-CLDN18.2 cells, 20 nM antibody, normalized by DAR” value came out at 7950 and the “Fluorescence, pHAb internalization on MKN45-CLDN18.2 cells, 100 nM antibody, normalized by DAR” value worked out at 18900. Also, in test [2], the “EC50, ADCC Reporter Bioassay (luciferase)” value turned out to be 0.158 nM. In test [3], the “EC50, ADCC Reporter Bioassay (luciferase, Jurkat FcγRIIIa V158/NFAT effector cells)” value amounted to 0.459 nM.

Source of the values: patent US20230330253A1 (LANOVA MEDICINES, published 2023).
